No end group written: not given here. *: point of attachment. Acm = CC(=O)NC*

B1: [Cys^1, 51(Acm)]-hUcn2(1-51)-OH) (peptide)
peptide: C(Acm)SPTRHPGSRIVLSLDVPIGLLQILLEQARARAAREQATTNARILARVGHC(Acm)-OH
B2: mUcn 2 prohormone (peptide)
peptide: TPIPTFQLLPQNSLETTPSSVTSESSSGTTTGPSASWSNSKASPYLDTRVILSLDVPIGLLRILLEQARYKAARNQAATNAQILAHV
modifications: here or on the partner: amidated at the C-terminus
B3: hUcn 2 prohormone (peptide)
peptide: IPTFQLRPQNSPQTTPRPAASESPSAAPTWPWAAQSHCSPTRHPGSRIVLSLDVPIGLLQILLEQARARAAREQATTNARILARV
modifications: here or on the partner: amidated at the C-terminus

Sequence of CRFR^2 expressed by A7r5 cells, P47866 (P47866 20-411): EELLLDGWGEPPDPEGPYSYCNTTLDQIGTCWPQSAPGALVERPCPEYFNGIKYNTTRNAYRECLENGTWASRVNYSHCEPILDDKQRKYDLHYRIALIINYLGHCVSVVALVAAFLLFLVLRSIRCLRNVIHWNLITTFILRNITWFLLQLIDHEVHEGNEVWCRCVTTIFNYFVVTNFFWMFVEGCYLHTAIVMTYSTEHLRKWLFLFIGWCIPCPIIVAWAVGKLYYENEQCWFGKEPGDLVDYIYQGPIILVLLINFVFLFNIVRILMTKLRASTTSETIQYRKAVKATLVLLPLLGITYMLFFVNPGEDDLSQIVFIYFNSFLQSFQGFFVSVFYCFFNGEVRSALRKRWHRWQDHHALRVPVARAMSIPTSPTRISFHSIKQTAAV

The assay concerns the target CRFR^2 expressed by A7r5 cells, P47866. The assay is described as follows: cell-based or functional assay.
Molecule IVLSLDVPIGLLQILLEQARARAAREQATTNARILARV-NH2 [hUcn 2] returned a cAMP A7r5 (EC50, nM) of 0.11 nM.
Regarding IVLSLDVPIGLLQILLEQARARAAREQATTNARILARVGH-OH [hUcn 2-GH-OH], the cAMP A7r5 (EC50, nM) amounted to 2.9 nM.
Then B1, with 9.5 nM; and HPGSRIVLSLDVPIGLLQILLEQARARAAREQATTNARILARV-NH2 [SRP (HPGSR-hUcn 2)], with 0.09 nM; and RIVLSLDVPIGLLQILLEQARARAAREQATTNARILARV-NH2 [R^0-hUcn 2], with 0.027 nM.
IVLSLDVPIGLLQILLEQARARAAREQATTNARILARVGHC-OH [hUcn 2-GHC-OH] came in with a cAMP A7r5 (EC50, nM) of 13.9 nM.
VILSLDVPIGLLRILLEQARYKAARNQAATNAQILAHV-NH2 [mUcn 2] showed a cAMP A7r5 (EC50, nM) of 0.07 nM.
For the molecule IVLSLDVPIGLLQILLEQARARAAREQATTNARILARVG-OH [hUcn 2-G-OH], the cAMP A7r5 (EC50, nM) was 6.3 nM.
Molecule B2 showed a cAMP A7r5 (EC50, nM) of 0.53 nM.
As to B3, the cAMP A7r5 (EC50, nM) was determined as 2.3 nM.
To IVLSLDVPIGLLQILLEQARARAAREQATTNARILARV-OH [hUcn 2-OH] belongs 90.4 nM; to RVILSLDVPIGLLRILLEQARYKAARNQAATNAQILAHV-NH2 [R^0-mUcn 2], 0.05 nM.
